# Source: article PMC12538056, “The effects of naturally occurring mutations on functionality of oxylipin metabolizing dehydrogenase reductase nine” (The Journal of Biological Chemistry, 2025)
# B1: water-soluble form of mouse DHRS9 (dehydrogenase reductase 9) lacking the N-terminal transmembrane segment (enzyme, UniProt Q58NB6 17-319, looked up)
# chain: NYKGQLKIADIADKYVFITGCDTGFGNLAARTFDKKGFRVIAACLTESGSAALKAKTSERLHTVLLDVTDPENVKKTAQWVKSHVGEKGLWGLINNAGVLGVLAPTDWLTVDDYREPIEVNLFGLINVTLNMLPLVKKARGRVINVSSIGGRLAFGGGGYTPSKYAVEGFNDSLRRDMKAFGVHVSCIEPGLFKTELADPIKTTEKKLAIWKHLSPDIKQQYGEGYIEKSLHRLKSNTSSVNLDLSLVVGCMDHALTSLFPKTRYIAGKDAKTFWIPLSHMPAVLQDFLLLKQKVELANPKAV
# notes: mouse DHRS9 lacking the first 16 amino acids that form the transmembrane segment; residues 17 to 319; cDNA made by RT-PCR from mouse skin; Crystallised in complex with NADH; In the model, residues 21-319 (chain A) and 22-319 (chain B) are seen; the tag and residues 17-20/21 could not be located; also called soluble form of DHRS9; truncated DHRS9 protein; not shown: His10, N-terminal, kept
# Target: the molecule itself
# Assay: not stated; purified water-soluble DHRS9 in solution; the method is shown only in Fig. S3
protein,measurement,value
B1,stoichiometry N,2
